Laboratory results published in US20040002442A1 (Bayer, published 2004).
Ends that are not written are not given here. * marks the point of attachment. Palmitoyl = CCCCCCCCCCCCCCCC(=O)*

T1: GLP-1 receptor present in the plasma membranes isolated from RINm5F cells (UniProt P32301 22-463, limits assumed)
T1 construct: whole, on cells
T1 sequence (looked up): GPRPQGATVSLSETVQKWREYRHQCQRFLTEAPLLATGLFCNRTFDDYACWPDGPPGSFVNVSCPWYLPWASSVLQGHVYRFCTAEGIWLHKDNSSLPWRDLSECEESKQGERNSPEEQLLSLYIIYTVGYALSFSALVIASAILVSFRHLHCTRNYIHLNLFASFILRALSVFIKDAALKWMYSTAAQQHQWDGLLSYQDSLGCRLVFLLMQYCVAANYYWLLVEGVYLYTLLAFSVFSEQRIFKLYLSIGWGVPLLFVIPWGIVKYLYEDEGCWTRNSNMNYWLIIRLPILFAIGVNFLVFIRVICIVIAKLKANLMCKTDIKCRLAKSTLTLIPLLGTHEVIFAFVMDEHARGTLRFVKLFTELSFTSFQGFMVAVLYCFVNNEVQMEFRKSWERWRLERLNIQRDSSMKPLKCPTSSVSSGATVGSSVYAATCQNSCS


What was measured:
[1] = molecular target: T2, glucagon receptor present in the plasma membranes isolated from rat liver (rat, UniProt P30082 27-485); test: 125I-glucagon displacement, rat liver plasma membranes
T2 construct: whole, on cells
T2 sequence (P30082 27-485): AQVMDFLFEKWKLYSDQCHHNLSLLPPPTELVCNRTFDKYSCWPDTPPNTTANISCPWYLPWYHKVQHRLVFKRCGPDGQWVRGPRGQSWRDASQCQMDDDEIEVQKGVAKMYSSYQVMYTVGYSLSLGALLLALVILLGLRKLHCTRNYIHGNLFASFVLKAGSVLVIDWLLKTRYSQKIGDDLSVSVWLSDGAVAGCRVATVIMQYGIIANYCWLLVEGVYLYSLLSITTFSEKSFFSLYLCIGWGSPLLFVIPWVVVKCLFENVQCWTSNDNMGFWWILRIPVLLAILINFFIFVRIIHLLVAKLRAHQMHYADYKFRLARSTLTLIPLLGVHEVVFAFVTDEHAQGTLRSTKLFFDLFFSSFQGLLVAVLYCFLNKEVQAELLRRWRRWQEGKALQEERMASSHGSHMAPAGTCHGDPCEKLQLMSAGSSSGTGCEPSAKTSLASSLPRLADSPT
Method: (§1) Competitive binding of some polypeptides of the invention to rat liver plasma membranes was measured as follows. Ninety-six-well GF/C filtration plates (Millipore, Bedford, Ma.) were blocked with 0.1% PEI for at least one hour and washed twice with binding buffer consisting of 20 mM Tris, 2 mM EDTA, pH 7.5, 1 mg/ml BSA, and 1 mg/ml bacitracin. […] The plates were dried, scintillant was added to each well, and cpm per well determined using a Wallac Microbeta counter.

[2] = molecular target: T1, GLP-1 receptor present in the plasma …; test: 125I-GLP-1 displacement, RINm5F plasma membranes
Method: as §1, with “RINm5F cell” for “rat liver”, “0.3%” for “0.1%”

[3] = molecular target: T1, GLP-1 receptor present in the plasma …; test: cell-based or functional assay
[4] = molecular target: T2, glucagon receptor present in the plasma …; test: cell-based or functional assay

| IC50 [1] | IC50 [2] | % GLP1 max, cAMP SPA in RINm5F cells [3] | Relative Potency (%), cAMP SPA in RINm5F cells [3] | % Inhib glucagon stimulated cAMP increase (10 uM peptide, rat hepatocytes) [4] | Binder |
| --- | --- | --- | --- | --- | --- |
| 16.1 nM | 1.5 nM | 95.8% | 64.5% | 27.9% | HSQGTFTSDYARYLDARRAREFIAWLVRGRGK [G85] |
| 620 nM | 98.6 nM | 100% | 6.1% | 59% | HSQGTFTSDYAKYLDARRAK(Palmitoyl)EFIAWLVKGR-NH2 (N-terminus assumed; SMILES CCCCCCCCCCCCCCCC(=O)NCCCC[C@H](NC(=O)[C@H](C)NC(=O)[C@H](CCCNC(=N)N)NC(=O)[C@H](CCCNC(=N)N)NC(=O)[C@H](C)NC(=O)[C@H](CC(=O)O)NC(=O)[C@H](CC(C)C)NC(=O)[C@H](Cc1ccc(O)cc1)NC(=O)[C@H](CCCCN)NC(=O)[C@H](C)NC(=O)[C@H](Cc1ccc(O)cc1)NC(=O)[C@H](CC(=O)O)NC(=O)[C@H](CO)NC(=O)[C@@H](NC(=O)[C@H](Cc1ccccc1)NC(=O)[C@@H](NC(=O)CNC(=O)[C@H](CCC(N)=O)NC(=O)[C@H](CO)NC(=O)[C@@H](N)Cc1c[nH]cn1)[C@@H](C)O)[C@@H](C)O)C(=O)N[C@@H](CCC(=O)O)C(=O)N[C@@H](Cc1ccccc1)C(=O)N[C@H](C(=O)N[C@@H](C)C(=O)N[C@@H](Cc1c[nH]c2ccccc12)C(=O)N[C@@H](CC(C)C)C(=O)N[C@H](C(=O)N[C@@H](CCCCN)C(=O)NCC(=O)N[C@@H](CCCNC(=N)N)C(N)=O)C(C)C)[C@@H](C)CC) [G87] |
| 33.6 nM | 8.1 nM | 97.1% | 29.9% | 30.2% | HSQGTFTSDYARYLDARRAKEFIAWLVRGRG [G82] |
| 28.6 nM | 3.2 nM | 89.4% | 29.9% | 24.7% | HSQGTFTSDYARYLDARRAREFIKWLVRGRG [G83] |
| 11.7 nM | 1.4 nM | 114% | 61.8% | 25.2% | HSQGTFTSDYARYLDARRAREFIAWLVKGRG [G84] |
| 61.1 nM | 8.9 nM | 92.1% | 9.5% | 18.6% | HSQGTFTSDYAKYLDARRAKEFIAWLVKGRC [G77] |
| 48 nM | 4.5 nM | 104% | 13% | 32% | HSQGTFTSDYARYLDARRAREFIKWLVRGRC [G185] |
| 59.1 nM | 10.2 nM | 85% | 7.7% | 23% | HSQGTFTSDYAKYLDARRAKEFIAWLVKGCG [G76] |

The next lines start with the binder.

| Binder | IC50 [1] | IC50 [2] | % GLP1 max, cAMP SPA in RINm5F cells [3] | Relative Potency (%), cAMP SPA in RINm5F cells [3] | % Inhib glucagon stimulated cAMP increase (10 uM peptide, rat hepatocytes) [4] |
| --- | --- | --- | --- | --- | --- |
| HSQGTFTSDYARYLDAAKAKEFIAWLVKGRG [G61] | 232 nM | 10.6 nM | 96% | 12.1% | 45.2% |
| HSQGTFTSDYAKYLDARRAKEFIAWLVKCRG [G75] | 54 nM | 7.7 nM | 86.1% | 6.6% | 17.1% |
| HSQGTFTSDYAKYLDARRACEFIAWLVKGRG [G71] | 25.6 nM | 5.8 nM | 93.3% | 4.3% | 11.3% |
| HSQGTFTSDYAKYLDARRAKEFIAWLVCGRG [G74] | 21.7 nM | 4.4 nM | 88.7% | 8.4% | 23.7% |
| HSQGTFTSDYAKYLDARRAKEFIAWLVKGR-NH2 [G27] | 69.3 nM | 2.2 nM | 98.1% | 13.4% | 31% |
| HSQGTFTSDYAAYLDARRAKEFIAWLVKGR-NH2 [G56] | 125 nM | 6.6 nM | 115% | 37.2% | 28.6% |
| HSQGTFTSDYARYLDARRAKEFIAWLVKGR-NH2 [G55] | 139 nM | 9.8 nM | 116% | 18.6% | 32.1% |
| HSQGTFTSDYAKYLDAARAKEFIAWLVKGR-NH2 [G57] | 178 nM | 14.7 nM | 132% | 18.3% | 18.4% |
